Assay results reported in patent US20210093667.

Tests used:
[1] = tested on: dPspCas13b-ADAR1DD H133A,H1058A (Prevotella sp. P5-125 / Homo sapiens); assay: cell_activity; settings: on-target A-to-I RNA editing
[2] = tested on: dPspCas13b-ADAR2DD(E488Q) (REPAIRv1) H133A,H1058A (Prevotella sp. P5-125 / Homo sapiens); assay: cell_activity

Cluc W85X targeting guide ; Cluc W85X transcript (254 A>G site)
activity [1]: 29 % editing | activity ([2]; 10 ng Cas13-ADAR transfected): 80 % editing | activity ([2]; 150 ng Cas13-ADAR transfected): 83 % editing | activity ([2]; on-target A-to-I RNA editing): 71 % editing
